{"source": "patent US6525022B1", "about": "“Receptor specific atrial natriuretic peptides” (Genentech, Inc., priority 1993, dated 2003)", "key": {"[1]": {"molecular_target": "human neutral endopeptidase 24.11 (human) (UniProt P08473)", "assay": "cell-based or functional assay"}, "hNPR-C": {"molecular_target": "T1, hNPR-C (Homo sapiens, UniProt P17342)", "T1 sequence (P17342 27-541)": "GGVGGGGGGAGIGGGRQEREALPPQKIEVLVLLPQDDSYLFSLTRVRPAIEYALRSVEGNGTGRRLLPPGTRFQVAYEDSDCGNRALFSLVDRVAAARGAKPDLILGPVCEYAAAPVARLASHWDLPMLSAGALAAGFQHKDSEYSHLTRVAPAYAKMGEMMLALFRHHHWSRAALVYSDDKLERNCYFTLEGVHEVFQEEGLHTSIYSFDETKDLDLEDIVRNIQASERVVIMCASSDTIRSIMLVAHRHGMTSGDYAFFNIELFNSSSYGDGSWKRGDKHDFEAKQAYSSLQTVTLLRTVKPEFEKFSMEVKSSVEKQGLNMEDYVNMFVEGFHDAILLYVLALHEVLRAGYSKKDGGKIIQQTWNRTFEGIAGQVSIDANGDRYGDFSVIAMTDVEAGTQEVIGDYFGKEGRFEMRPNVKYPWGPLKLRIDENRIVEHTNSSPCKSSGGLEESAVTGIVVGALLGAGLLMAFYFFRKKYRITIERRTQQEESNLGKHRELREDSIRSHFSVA", "assay": "Competition binding to hNPR-C (Table I, FIG. 5)"}, "hNPR-A": {"molecular_target": "T2, hNPR-A (Homo sapiens, UniProt P16066)", "T2 sequence (P16066 33-1061)": "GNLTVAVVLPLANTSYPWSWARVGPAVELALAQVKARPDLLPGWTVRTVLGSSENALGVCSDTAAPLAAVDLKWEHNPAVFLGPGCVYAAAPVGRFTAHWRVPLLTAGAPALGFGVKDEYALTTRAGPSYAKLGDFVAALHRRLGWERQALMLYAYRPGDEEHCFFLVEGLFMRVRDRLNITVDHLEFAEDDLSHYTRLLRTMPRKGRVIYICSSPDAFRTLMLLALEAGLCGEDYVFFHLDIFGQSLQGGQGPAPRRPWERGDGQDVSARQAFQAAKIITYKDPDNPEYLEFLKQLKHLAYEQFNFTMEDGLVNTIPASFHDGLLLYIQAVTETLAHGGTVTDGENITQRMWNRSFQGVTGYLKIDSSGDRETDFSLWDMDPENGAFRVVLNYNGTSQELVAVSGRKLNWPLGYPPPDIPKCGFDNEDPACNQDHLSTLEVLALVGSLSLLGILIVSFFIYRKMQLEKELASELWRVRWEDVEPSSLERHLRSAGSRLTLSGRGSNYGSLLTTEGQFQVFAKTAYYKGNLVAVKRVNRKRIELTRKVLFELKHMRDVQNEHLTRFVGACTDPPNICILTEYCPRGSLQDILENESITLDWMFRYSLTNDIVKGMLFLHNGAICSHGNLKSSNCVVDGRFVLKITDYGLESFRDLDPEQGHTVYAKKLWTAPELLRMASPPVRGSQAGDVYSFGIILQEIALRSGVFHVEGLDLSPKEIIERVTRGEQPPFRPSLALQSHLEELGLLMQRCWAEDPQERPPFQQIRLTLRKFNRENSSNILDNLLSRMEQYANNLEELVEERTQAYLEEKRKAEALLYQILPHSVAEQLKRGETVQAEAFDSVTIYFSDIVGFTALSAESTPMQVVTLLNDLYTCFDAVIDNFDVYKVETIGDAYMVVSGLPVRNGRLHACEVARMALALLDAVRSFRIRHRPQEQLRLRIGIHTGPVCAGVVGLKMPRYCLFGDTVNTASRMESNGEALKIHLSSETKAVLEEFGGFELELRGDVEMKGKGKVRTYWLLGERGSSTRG", "assay": "Competition binding to hNPR-A (Table I, FIG. 5)"}, "[2]": {"molecular_target": "human NEP (hNEP), endopeptidase 24.11 (Homo sapiens, UniProt P08473)", "sequence (P08473 whole entry)": "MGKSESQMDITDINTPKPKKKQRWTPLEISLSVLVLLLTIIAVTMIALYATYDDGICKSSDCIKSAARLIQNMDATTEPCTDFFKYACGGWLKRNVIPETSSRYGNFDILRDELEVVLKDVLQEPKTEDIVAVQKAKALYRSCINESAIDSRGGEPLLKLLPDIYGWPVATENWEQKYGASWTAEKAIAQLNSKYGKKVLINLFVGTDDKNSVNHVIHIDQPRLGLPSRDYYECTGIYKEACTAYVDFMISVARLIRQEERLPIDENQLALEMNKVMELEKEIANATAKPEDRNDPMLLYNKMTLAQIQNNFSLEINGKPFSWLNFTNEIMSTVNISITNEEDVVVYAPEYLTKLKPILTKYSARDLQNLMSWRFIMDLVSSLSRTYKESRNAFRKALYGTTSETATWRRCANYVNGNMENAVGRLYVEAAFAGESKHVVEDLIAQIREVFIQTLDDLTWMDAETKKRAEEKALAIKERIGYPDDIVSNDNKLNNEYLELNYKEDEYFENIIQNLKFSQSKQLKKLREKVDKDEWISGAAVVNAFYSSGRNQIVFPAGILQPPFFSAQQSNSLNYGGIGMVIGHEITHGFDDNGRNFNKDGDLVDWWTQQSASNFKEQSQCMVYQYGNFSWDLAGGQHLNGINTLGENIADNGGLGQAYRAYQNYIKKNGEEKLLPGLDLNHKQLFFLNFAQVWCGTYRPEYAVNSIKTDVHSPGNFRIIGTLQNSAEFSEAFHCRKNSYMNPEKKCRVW", "assay": "Degradation of ANF variants by human NEP, half-life by HPLC", "conditions": "isolated human NEP (endopeptidase 24.11) in HEPES buffer, Half-Life (min.), FIG. 7: ANF variants 32 nM/ml, NEP 0.45 μg/ml"}, "[3]": {"molecular_target": "T3, human natriuretic peptide receptor-A (human), P16066", "T3 chain": "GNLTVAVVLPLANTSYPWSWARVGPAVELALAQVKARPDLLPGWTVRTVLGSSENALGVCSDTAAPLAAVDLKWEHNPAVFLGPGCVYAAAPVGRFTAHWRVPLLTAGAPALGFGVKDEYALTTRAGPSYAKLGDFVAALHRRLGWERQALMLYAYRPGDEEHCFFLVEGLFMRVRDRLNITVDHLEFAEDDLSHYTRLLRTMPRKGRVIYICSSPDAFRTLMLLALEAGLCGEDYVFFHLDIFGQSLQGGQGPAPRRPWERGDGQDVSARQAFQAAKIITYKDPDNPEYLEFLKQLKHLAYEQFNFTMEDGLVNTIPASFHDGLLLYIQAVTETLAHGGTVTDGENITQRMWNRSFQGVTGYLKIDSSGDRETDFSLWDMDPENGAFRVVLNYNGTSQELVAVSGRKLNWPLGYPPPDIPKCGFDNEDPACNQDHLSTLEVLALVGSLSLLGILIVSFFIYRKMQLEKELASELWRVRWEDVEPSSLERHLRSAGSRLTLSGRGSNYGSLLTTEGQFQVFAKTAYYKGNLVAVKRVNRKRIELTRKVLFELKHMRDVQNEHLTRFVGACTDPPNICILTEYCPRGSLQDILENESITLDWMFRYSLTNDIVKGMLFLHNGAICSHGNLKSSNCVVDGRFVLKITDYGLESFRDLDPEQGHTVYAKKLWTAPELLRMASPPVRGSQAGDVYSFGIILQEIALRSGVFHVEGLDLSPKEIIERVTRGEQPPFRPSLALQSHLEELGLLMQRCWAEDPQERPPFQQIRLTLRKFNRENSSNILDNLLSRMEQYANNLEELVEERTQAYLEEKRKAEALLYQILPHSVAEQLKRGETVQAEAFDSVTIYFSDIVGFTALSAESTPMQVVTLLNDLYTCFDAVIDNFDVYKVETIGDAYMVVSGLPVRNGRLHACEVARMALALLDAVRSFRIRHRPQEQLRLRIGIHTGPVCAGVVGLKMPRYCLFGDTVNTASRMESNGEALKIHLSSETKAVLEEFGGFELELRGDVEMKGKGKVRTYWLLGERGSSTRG", "assay": "competition binding vs 125I-rat ANP, membranes", "conditions": "chains peptide; modification not given"}, "[4]": {"molecular_target": "T4, human neutral endopeptidase 24.11 (human), P08473", "T4 chain": "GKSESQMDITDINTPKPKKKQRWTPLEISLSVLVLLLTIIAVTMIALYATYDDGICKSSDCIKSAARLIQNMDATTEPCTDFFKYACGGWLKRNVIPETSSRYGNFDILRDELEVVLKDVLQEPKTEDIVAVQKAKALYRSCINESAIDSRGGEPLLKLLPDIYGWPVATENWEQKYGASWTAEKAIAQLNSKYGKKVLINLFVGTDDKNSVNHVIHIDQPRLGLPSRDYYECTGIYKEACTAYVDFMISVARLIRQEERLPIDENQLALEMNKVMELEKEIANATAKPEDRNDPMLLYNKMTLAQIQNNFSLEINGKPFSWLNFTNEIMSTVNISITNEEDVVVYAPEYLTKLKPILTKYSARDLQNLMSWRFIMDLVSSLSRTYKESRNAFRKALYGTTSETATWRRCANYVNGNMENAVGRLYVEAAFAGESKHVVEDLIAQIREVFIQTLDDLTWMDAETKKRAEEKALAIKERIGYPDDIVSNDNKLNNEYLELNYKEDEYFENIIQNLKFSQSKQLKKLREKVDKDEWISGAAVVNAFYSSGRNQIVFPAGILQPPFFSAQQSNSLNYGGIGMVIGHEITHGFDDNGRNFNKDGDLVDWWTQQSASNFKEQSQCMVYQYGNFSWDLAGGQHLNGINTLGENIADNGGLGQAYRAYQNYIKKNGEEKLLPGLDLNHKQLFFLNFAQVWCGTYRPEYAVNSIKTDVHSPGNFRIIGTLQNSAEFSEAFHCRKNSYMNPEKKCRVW", "assay": "cell-based or functional assay"}, "[5]": {"molecular_target": "T5, human natriuretic peptide clearance receptor-C (human), P17342", "T5 chain": "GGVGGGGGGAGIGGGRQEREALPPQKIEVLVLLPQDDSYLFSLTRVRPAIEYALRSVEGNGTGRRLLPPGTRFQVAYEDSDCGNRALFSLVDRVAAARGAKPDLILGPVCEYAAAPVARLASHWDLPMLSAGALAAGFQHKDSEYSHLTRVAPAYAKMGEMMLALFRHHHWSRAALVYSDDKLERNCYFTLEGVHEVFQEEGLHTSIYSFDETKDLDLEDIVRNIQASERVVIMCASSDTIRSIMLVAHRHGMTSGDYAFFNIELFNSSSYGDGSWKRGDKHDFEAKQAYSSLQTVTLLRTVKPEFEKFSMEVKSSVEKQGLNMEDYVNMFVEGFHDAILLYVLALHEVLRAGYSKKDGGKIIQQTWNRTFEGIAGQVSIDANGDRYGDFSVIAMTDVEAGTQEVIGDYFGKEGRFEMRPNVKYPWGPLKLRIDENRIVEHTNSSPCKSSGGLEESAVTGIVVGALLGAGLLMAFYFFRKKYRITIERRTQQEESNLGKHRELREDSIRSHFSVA", "assay": "competition binding, membranes", "conditions": "chains peptide; modification not given"}, "[6]": {"molecular_target": "T5, human natriuretic peptide clearance …", "assay": "competition binding, Table I; tracer and receptor format not given"}, "[7]": {"molecular_target": "T3, human natriuretic peptide receptor-A …", "assay": "competition binding, Table I; tracer and receptor format not given"}}, "note": "Where a SMILES comes first, the peptide text is derived from it. Bridges are numbered along the chain shown (N, C = ends).", "data": [{"molecule": "ANF 40 (peptide)", "values": [{"measurement": "Half-Life", "setting": "[1]", "result": 9.95, "unit": "h"}]}, {"molecule": "hANF(1-28) G16R (SLRRSSCFGGRMDRIRAQSGLGCNSFRY) [hANF with the single substitution of arginine for glycine at position 16]", "values": [{"measurement": "Reduction of NPR-C affinity", "setting": "hNPR-C; relative to wild type", "result": "about 150 fold"}, {"measurement": "Effect of substitution on NPR-A binding", "setting": "hNPR-A; relative to wild type", "result": "negligible effect"}]}, {"molecule": "ANF 28 (peptide)", "values": [{"measurement": "Half-Life", "setting": "[1]", "result": 9.52, "unit": "h"}]}, {"molecule": "CC[C@H](C)[C@@H]1NC(=O)[C@H](CCCNC(=N)N)NC(=O)[C@H](CC(=O)O)NC(=O)[C@H](CCSC)NC(=O)[C@H](CO)NC(=O)[C@H](CCCCN)NC(=O)CNC(=O)[C@H](Cc2ccccc2)NC(=O)[C@@H](NC(=O)[C@H](CO)NC(=O)[C@H](CO)NC(=O)[C@H](CCCNC(=N)N)NC(=O)[C@H](CCCNC(=N)N)NC(=O)[C@H](CC(C)C)NC(=O)[C@@H](N)CO)CSSC[C@@H](C(=O)N[C@@H](CC(N)=O)C(=O)N[C@@H](CO)C(=O)N[C@@H](Cc2ccccc2)C(=O)N[C@@H](CCCNC(=N)N)C(=O)N[C@@H](Cc2ccc(O)cc2)C(=O)O)NC(=O)CNC(=O)[C@H](CC(C)C)NC(=O)CNC(=O)[C@H](CO)NC(=O)[C@H](CCC(N)=O)NC(=O)[C@H](C)NC(=O)CNC1=O", "note": "[ANF 60] (H-SLRRSSCFGKSMDRIGAQSGLGCNSFRY-OH; disulfide 7-23; C-terminus assumed)", "values": [{"measurement": "half-life at 32 nM/ml", "setting": "[2]", "result": 5.07, "unit": "h"}, {"measurement": "IC50", "setting": "hNPR-C; read-out: Binding Affinity IC50(pM) hNPR-C", "result": 5980, "unit": "pM"}, {"measurement": "IC50", "setting": "hNPR-A; read-out: Binding Affinity IC50(pM) hNPR-A", "result": 112, "unit": "pM"}]}, {"molecule": "SLRRSSCFGGRIDRIGAQSGLGCNSFRY", "note": "[rat ANP]", "values": [{"measurement": "IC50", "setting": "[3]", "result": 0.181, "unit": "nM"}, {"measurement": "Half-Life", "setting": "[4]", "result": 2.75, "unit": "h"}, {"measurement": "IC50", "setting": "[5]", "result": 0.145, "unit": "nM"}]}, {"molecule": "SLRRSSCFGGRIDRIREASGLGCNSFRY", "note": "[ANF 99]", "values": [{"measurement": "IC50", "setting": "[3]", "result": 0.145, "unit": "nM"}, {"measurement": "IC50", "setting": "[5]", "result": 121, "unit": "nM"}]}, {"molecule": "SLRRSSCFTGSIDRIRAQSGLGCNSFRY (modifications not checked)", "note": "[ANF 27]", "values": [{"measurement": "IC50", "setting": "[6]", "result": 1000, "unit": "nM"}, {"measurement": "Half-Life", "setting": "[4]", "result": 5.57, "unit": "h"}]}, {"molecule": "SLRRSSCFGKSMDRIGAQSGLGCNSFRY (modifications not checked)", "note": "[ANF 60]", "values": [{"measurement": "IC50", "setting": "[6]", "result": 5.98, "unit": "nM"}, {"measurement": "IC50", "setting": "[7]", "result": 0.112, "unit": "nM"}, {"measurement": "Half-Life", "setting": "[4]", "result": 5.07, "unit": "h"}]}, {"molecule": "TAPRSLRRSSCFTGSIDRIRAQSGLGCNSFRY (modifications not checked)", "note": "[ANF 76]", "values": [{"measurement": "IC50", "setting": "[7]", "result": 0.0089, "unit": "nM"}, {"measurement": "Half-Life", "setting": "[4]", "result": 23.5, "unit": "h"}]}, {"molecule": "SLRRSSCFGGRMDRIGAQSGLGCNSFRY (modifications not checked)", "note": "[hANF(1-28), wild-type human atrial natriuretic factor]", "values": [{"measurement": "Half-Life", "setting": "[4]", "result": 2.27, "unit": "h"}]}]}
